Measurements as given in patent US20140322307A1 (LIPOTEC S A, published 2014).

T1: Proteinase-Activated Receptor-2 (human, on human keratinocytes) (human, UniProt P55085 37-397)
T1 sequence (looked up): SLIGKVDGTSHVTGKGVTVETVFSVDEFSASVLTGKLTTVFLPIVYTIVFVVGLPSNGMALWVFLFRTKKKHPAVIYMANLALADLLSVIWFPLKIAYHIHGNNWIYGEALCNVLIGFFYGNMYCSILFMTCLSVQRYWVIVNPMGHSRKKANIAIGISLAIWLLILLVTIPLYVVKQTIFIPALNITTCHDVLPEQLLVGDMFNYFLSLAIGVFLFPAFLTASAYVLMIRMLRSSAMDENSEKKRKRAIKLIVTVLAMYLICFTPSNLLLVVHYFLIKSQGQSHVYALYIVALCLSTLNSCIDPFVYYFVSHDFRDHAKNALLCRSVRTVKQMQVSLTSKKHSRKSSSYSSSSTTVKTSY


Target: T1, Proteinase-Activated Receptor-2 (human, …)
Test: cell-based or functional assay

Binder | Inhibition PAR-2 activity (calcium fluorescence, human keratinocytes, peptide at 1 mg/mL) [%] | PAR-2 activity (calcium fluorescence, human keratinocytes, peptide at 1 mg/mL) [%]
Ac-SMQFIS-NH2 [Ac-L-Ser-L-Met-L-Gln-L-Phe-L-Ile-L-Ser-NH2] | 52.6 | 47.4
Ac-FMWFHS-NH2 [Ac-L-Phe-L-Met-L-Trp-L-Phe-L-His-L-Ser-NH2] | 72.2 | 27.8
Ac-SFRFIS-NH2 [Ac-L-Ser-L-Phe-L-Arg-L-Phe-L-Ile-L-Ser-NH2] | 16.2 | 83.8
Ac-FFWFHS-NH2 [Ac-L-Phe-L-Phe-L-Trp-L-Phe-L-His-L-Ser-NH2] | 49.2 | 50.8
Ac-SFQFHS-NH2 [Ac-L-Ser-L-Phe-L-Gln-L-Phe-L-His-L-Ser-NH2] | 9.9 | 90.1
Ac-FFQFIV-NH2 [Ac-L-Phe-L-Phe-L-Gln-L-Phe-L-Ile-L-Val-NH2] | 24.1 | 75.9
Ac-FMRFHV-NH2 [Ac-L-Phe-L-Met-L-Arg-L-Phe-L-His-L-Val-NH2] | 40 | 60
Ac-SFQFIV-NH2 [Ac-L-Ser-L-Phe-L-Gln-L-Phe-L-Ile-L-Val-NH2] | 26.2 | 73.8
Ac-FFQDIS-NH2 [Ac-L-Phe-L-Phe-L-Gln-L-Asp-L-Ile-L-Ser-NH2] | 27 | 73
Ac-FMRFIV-NH2 [Ac-L-Phe-L-Met-L-Arg-L-Phe-L-Ile-L-Val-NH2] | 40.9 | 59.1
Ac-FMWDIS-NH2 [Ac-L-Phe-L-Met-L-Trp-L-Asp-L-Ile-L-Ser-NH2] | 26.5 | 73.5
Ac-FFRFIV-NH2 [Ac-L-Phe-L-Phe-L-Arg-L-Phe-L-Ile-L-Val-NH2] | 53.7 | 46.3
Ac-FFQFHV-NH2 [Ac-L-Phe-L-Phe-L-Gln-L-Phe-L-His-L-Val-NH2] | 19.9 | 80.1
Ac-FMQFHS-NH2 [Ac-L-Phe-L-Met-L-Gln-L-Phe-L-His-L-Ser-NH2] | 23 | 77
Ac-FMRFIS-NH2 [Ac-L-Phe-L-Met-L-Arg-L-Phe-L-Ile-L-Ser-NH2] | 35.1 | 64.9
Ac-FFQDIV-NH2 [Ac-L-Phe-L-Phe-L-Gln-L-Asp-L-Ile-L-Val-NH2] | 35.9 | 64.1
Ac-FFRFHV-NH2 [Ac-L-Phe-L-Phe-L-Arg-L-Phe-L-His-L-Val-NH2] | 23.4 | 76.6
Ac-FFQFIS-NH2 [Ac-L-Phe-L-Phe-L-Gln-L-Phe-L-Ile-L-Ser-NH2] | 59.3 | 40.7
Ac-SMQFIV-NH2 [Ac-L-Ser-L-Met-L-Gln-L-Phe-L-Ile-L-Val-NH2] | 23.4 | 76.7
Ac-SFWFHS-NH2 [Ac-L-Ser-L-Phe-L-Trp-L-Phe-L-His-L-Ser-NH2] | 26.4 | 73.6
Ac-SFWFIS-NH2 [Ac-L-Ser-L-Phe-L-Trp-L-Phe-L-Ile-L-Ser-NH2] | 39.2 | 60.8
Ac-FMQFIV-NH2 [Ac-L-Phe-L-Met-L-Gln-L-Phe-L-Ile-L-Val-NH2] | 28.6 | 71.4

Binder | Inhibition PAR-2 activity (calcium fluorescence, human keratinocytes, peptide at 1 mg/mL) [%] | PAR-2 activity (calcium fluorescence, human keratinocytes, peptide at 1 mg/mL) [%]
Ac-SMWFIS-NH2 [Ac-L-Ser-L-Met-L-Trp-L-Phe-L-Ile-L-Ser-NH2] | 67.8 | 32.2
Ac-FMQDIV-NH2 [Ac-L-Phe-L-Met-L-Gln-L-Asp-L-Ile-L-Val-NH2] | 9.7 | 90.3
Ac-SMRFIV-NH2 [Ac-L-Ser-L-Met-L-Arg-L-Phe-L-Ile-L-Val-NH2] | 75.2 | 24.8
Ac-FFWFIS-NH2 [Ac-L-Phe-L-Phe-L-Trp-L-Phe-L-Ile-L-Ser-NH2] | 66.3 | 33.7
Ac-FFRDIV-NH2 [Ac-L-Phe-L-Phe-L-Arg-L-Asp-L-Ile-L-Val-NH2] | 39 | 61
Ac-FMWFIV-NH2 [Ac-L-Phe-L-Met-L-Trp-L-Phe-L-Ile-L-Val-NH2] | 20.7 | 79.3
Ac-SFQFIS-NH2 [Ac-L-Ser-L-Phe-L-Gln-L-Phe-L-Ile-L-Ser-NH2] | 39 | 61
Ac-FFQFHS-NH2 [Ac-L-Phe-L-Phe-L-Gln-L-Phe-L-His-L-Ser-NH2] | 37.4 | 62.6
Ac-FMWFIS-NH2 [Ac-L-Phe-L-Met-L-Trp-L-Phe-L-Ile-L-Ser-NH2] | 67.7 | 32.3
Ac-FFRDHV-NH2 [Ac-L-Phe-L-Phe-L-Arg-L-Asp-L-His-L-Val-NH2] | 60.3 | 39.7
Ac-SFRFIV-NH2 [Ac-L-Ser-L-Phe-L-Arg-L-Phe-L-Ile-L-Val-NH2] | 58.9 | 41.1
Ac-FMWDIV-NH2 [Ac-L-Phe-L-Met-L-Trp-L-Asp-L-Ile-L-Val-NH2] | 86.1 | 13.9
Ac-FFWDHV-NH2 [Ac-L-Phe-L-Phe-L-Trp-L-Asp-L-His-L-Val-NH2] | 14.8 | 85.2
Ac-SMWFHS-NH2 [Ac-L-Ser-L-Met-L-Trp-L-Phe-L-His-L-Ser-NH2] | 64.9 | 35.1
Ac-FMRDHS-NH2 [Ac-L-Phe-L-Met-L-Arg-L-Asp-L-His-L-Ser-NH2] | 66.9 | 33.1
Ac-SMQFHV-NH2 [Ac-L-Ser-L-Met-L-Gln-L-Phe-L-His-L-Val-NH2] | 15.1 | 84.9
Ac-SMWFHV-NH2 [Ac-L-Ser-L-Met-L-Trp-L-Phe-L-His-L-Val-NH2] | 13.5 | 86.5
Ac-FFWDIS-NH2 [Ac-L-Phe-L-Phe-L-Trp-L-Asp-L-Ile-L-Ser-NH2] | 38.4 | 61.6
Ac-FMQFIS-NH2 [Ac-L-Phe-L-Met-L-Gln-L-Phe-L-Ile-L-Ser-NH2] | 89.1 | 10.9
Ac-SFWFHV-NH2 [Ac-L-Ser-L-Phe-L-Trp-L-Phe-L-His-L-Val-NH2] | 58.3 | 41.7
Ac-FMQFHV-NH2 [Ac-L-Phe-L-Met-L-Gln-L-Phe-L-His-L-Val-NH2] | 22.6 | 77.5
